B1: Centrosomal protein POC5 (Homo sapiens), Q8NA72 (parent)
chain: MSSDEEKYSLPVVQNDSSRGSSVSSNLQEEYEELLHYAIVTPNIEPCASQSSHPKGELVPDVRISTIHDILHSQGNNSEVRETAIEVGKGCDFHISSHSKTDESSPVLSPRKPSHPVMDFFSSHLLADSSSPATNSSHTDAHEILVSDFLVSDENLQKMENVLDLWSSGLKTNIISELSKWRLNFIDWHRMEMRKEKEKHAAHLKQLCNQINELKELQKTFEISIGRKDEVISSLSHAIGKQKEKIELMRTFFHWRIGHVRARQDVYEGKLADQYYQRTLLKKVWKVWRSVVQKQWKDVVERACQARAEEVCIQISNDYEAKVAMLSGALENAKAEIQRMQHEKEHFEDSMKKAFMRGVCALNLEAMTIFQNRNDAGIDSTNNKKEEYGPGVQGKEHSAHLDPSAPPMPLPVTSPLLPSPPAAVGGASATAVPSAASMTSTRAASASSVHVPVSALGAGSAATAASEEMYVPRVVTSAQQKAGRTITARITGRCDFASKNRISSSLAIMGVSPPMSSVVVEKHHPVTVQTIPQATAAKYPRTIHPESSTSASRSLGTRSAHTQSLTSVHSIKVVD
partner: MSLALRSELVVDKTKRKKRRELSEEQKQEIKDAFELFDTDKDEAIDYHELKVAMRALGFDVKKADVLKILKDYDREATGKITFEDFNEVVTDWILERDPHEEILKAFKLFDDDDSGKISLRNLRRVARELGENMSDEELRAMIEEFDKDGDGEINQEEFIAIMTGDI
B2: Ubiquitin domain-containing protein 2 (Homo sapiens), Q8WUN7 (parent)
chain: MGGCVGAQHDSSGSLNENSEGTGVALGRNQPLKKEKPKWKSDYPMTDGQLRSKRDEFWDTAPAFEGRKEIWDALKAAAHAFESNDHELAQAIIDGANITLPHGALTECYDELGNRYQLPVYCLAPPINMIEEKSDIETLDIPEPPPNSGYECQLRLRLSTGKDLKLVVRSTDTVFHMKRRLHAAEGVEPGSQRWFFSGRPLTDKMKFEELKIPKDYVVQVIVSQPVQNPTPVEN
partner: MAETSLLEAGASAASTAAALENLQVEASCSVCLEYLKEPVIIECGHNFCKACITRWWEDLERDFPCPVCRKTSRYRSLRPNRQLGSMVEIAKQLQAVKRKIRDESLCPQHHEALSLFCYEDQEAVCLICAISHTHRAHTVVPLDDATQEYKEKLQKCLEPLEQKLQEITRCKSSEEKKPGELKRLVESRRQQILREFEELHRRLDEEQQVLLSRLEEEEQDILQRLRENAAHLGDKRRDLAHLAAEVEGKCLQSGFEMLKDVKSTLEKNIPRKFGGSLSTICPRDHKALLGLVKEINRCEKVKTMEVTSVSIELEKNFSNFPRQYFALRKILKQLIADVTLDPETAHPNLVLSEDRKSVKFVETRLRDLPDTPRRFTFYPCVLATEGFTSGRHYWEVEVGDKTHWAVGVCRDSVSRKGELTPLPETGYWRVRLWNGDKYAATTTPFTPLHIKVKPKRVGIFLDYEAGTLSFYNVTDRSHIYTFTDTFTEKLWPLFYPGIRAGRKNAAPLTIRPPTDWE
B3: E3 ubiquitin-protein ligase LNX (Homo sapiens), Q8TBB1 (parent)
chain: MNQPESANDPEPLCAVCGQAHSLEENHFYSYPEEVDDDLICHICLQALLDPLDTPCGHTYCTLCLTNFLVEKDFCPMDRKPLVLQHCKKSSILVNKLLNKLLVTCPFREHCTQVLQRCDLEHHFQTSCKGASHYGLTKDRKRRSQDGCPDGCASLTATAPSPEVSAAATISLMTDEPGLDNPAYVSSAEDGQPAISPVDSGRSNRTRARPFERSTIRSRSFKKINRALSVLRRTKSGSAVANHADQGRENSENTTAPEVFPRLYHLIPDGEITSIKINRVDPSESLSIRLVGGSETPLVHIIIQHIYRDGVIARDGRLLPGDIILKVNGMDISNVPHNYAVRLLRQPCQVLWLTVMREQKFRSRNNGQAPDAYRPRDDSFHVILNKSSPEEQLGIKLVRKVDEPGVFIFNVLDGGVAYRHGQLEENDRVLAINGHDLRYGSPESAAHLIQASERRVHLVVSRQVRQRSPDIFQEAGWNSNGSWSPGPGERSNTPKPLHPTITCHEKVVNIQKDPGESLGMTVAGGASHREWDLPIYVISVEPGGVISRDGRIKTGDILLNVDGVELTEVSRSEAVALLKRTSSSIVLKALEVKEYEPQEDCSSPAALDSNHNMAPPSDWSPSWVMWLELPRCLYNCKDIVLRRNTAGSLGFCIVGGYEEYNGNKPFFIKSIVEGTPAYNDGRIRCGDILLAVNGRSTSGMIHACLARLLKELKGRITLTIVSWPGTFL
partner: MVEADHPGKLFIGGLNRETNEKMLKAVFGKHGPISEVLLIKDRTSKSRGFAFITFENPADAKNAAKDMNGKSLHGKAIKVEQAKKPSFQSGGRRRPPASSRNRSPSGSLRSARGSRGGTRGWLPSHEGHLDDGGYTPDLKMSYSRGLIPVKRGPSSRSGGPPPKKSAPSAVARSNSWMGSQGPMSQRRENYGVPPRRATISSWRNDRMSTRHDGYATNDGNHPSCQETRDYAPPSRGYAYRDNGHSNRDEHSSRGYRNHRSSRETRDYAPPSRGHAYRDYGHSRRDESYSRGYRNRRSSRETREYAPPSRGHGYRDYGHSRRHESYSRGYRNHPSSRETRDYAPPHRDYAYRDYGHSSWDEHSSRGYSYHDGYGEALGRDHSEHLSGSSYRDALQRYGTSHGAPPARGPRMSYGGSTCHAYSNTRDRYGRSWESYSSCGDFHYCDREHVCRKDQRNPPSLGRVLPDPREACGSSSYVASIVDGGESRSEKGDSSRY
B4: Small glutamine-rich tetratricopeptide repeat-containing protein beta (Homo sapiens), Q96EQ0 (parent)
chain: MSSIKHLVYAVIRFLREQSQMDTYTSDEQESLEVAIQCLETVFKISPEDTHLAVSQPLTEMFTSSFCKNDVLPLSNSVPEDVGKADQLKDEGNNHMKEENYAAAVDCYTQAIELDPNNAVYYCNRAAAQSKLGHYTDAIKDCEKAIAIDSKYSKAYGRMGLALTALNKFEEAVTSYQKALDLDPENDSYKSNLKIAEQKLREVSSPTGTGLSFDMASLINNPAFISMAASLMQNPQVQQLMSGMMTNAIGGPAAGVGGLTDLSSLIQAGQQFAQQIQQQNPELIEQLRNHIRSRSFSSSAEEHS
partner: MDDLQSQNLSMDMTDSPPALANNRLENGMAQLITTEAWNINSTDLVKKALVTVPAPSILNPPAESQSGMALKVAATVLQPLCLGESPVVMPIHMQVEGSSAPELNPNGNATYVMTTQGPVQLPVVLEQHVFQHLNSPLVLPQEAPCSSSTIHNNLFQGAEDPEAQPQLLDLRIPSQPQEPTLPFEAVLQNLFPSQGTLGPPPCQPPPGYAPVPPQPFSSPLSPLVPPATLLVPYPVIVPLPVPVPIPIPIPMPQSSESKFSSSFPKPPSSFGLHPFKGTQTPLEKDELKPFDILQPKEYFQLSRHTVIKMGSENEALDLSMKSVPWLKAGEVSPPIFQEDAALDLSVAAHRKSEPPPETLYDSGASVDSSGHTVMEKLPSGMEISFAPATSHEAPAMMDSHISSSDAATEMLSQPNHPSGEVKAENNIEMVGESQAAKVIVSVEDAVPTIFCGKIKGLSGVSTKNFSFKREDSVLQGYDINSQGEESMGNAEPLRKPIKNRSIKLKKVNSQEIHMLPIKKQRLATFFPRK

Variants of: B1
Conditions: with cetn3_human CETN3, O15182

Row | Variant | effect of a mutation on the interaction
1 | MSSDEEKYSLPVVQNDSSRGSSVSSNLQEEYEELLHYAIVTPNIEPCASQSSHPKGELVPDVRISTIHDILHSQGNNSEVRETAIEVGKGCDFHISSHSKTDESSPVLSPRKPSHPVMDFFSSHLLADSSSPATNSSHTDAHEILVSDFLVSDENLQKMENVLDLWSSGLKTNIISELSKWRLNFIDWHRMEMRKEKEKHAAHLKQLCNQINELKELQKTFEISIGRKDEVISSLSHAIGKQKEKIELMRTFFHWRIGHVRARQDVYEGKLADQYYQRTLLKKVWKVWRSVVQKQWKDVVERACQARAEEVCIQISNDYEAKVAMLSGALENAKAEIQRMQHEKEHFEDSMKKAFMRGVCALNLEAMTIFQNRNDAGIDSTNNKKEEYGPGVQGKEHSAHLDPSAPPMPLPVTSPLLPSPPAAVGGASATAVPSAASMTSTRAASASSVHVPVSALGAGSAATAASEETYVPRVVTSAQQKAGRTITARITGRCDFASKNRISSSLAIMGVSPPMSSVVVEKHHPVTVQTIPQATAAKYPRTIHPESSTSASRSLGTRSAHTQSLTSVHSIKVVD [M469T] | with no effect

Variants of: B2
Conditions: with tri39_human TRIM39, Q9HCM9

Row | Variant | effect of a mutation on the interaction
2 | MGGCVGAQHDSSGSLNENSEGTGVALGRNQPLKKEKPKWKSDYPMTDGQLRSKRDEFWDTAPAFEGRKEIWDALKAAAHAFESNDHELAQAIIDGANITLPHGALTECYDELGNRYQLPVYCLAPPINMIEEKSDIETLDIPEPPPNSGYECQLRLRLSTGKDLKLVVRSTDTVFHMKRWLHAAEGVEPGSQRWFFSGRPLTDKMKFEELKIPKDYVVQVIVSQPVQNPTPVEN [R180W] | with no effect

Variants of: B3
Conditions: with rby1a_human RBMY1A1, P0DJD3

Row | Variant | effect of a mutation on the interaction
3 | E295K | disrupting interaction strength

Variants of: B4
Conditions: with rai2_human RAI2, Q9Y5P3

Row | Variant | effect of a mutation on the interaction
4 | MSSIKHLVYAVIRFLREQSQMDTYTSDEQESLEVAIQCLETVFKISPEDTHLAVSQPLTEMFTSSFCKNDVLPLSNSVPEDVGKADQLKDEGNNHMKEENYAAAVDCYTQAIELDPNNAVYYCNRAAAQSKLGHYTDAIKDCEKAIAIDSKYSKAYGRMGLALTALNKFEEAVTSYQKALDLDPENDSYKSNLKIAEQKLREVSSPTGTGLSFDMASLINNPAFISMAASLMQNPQVQQLMSGMMTNAIGGPAAGVGGLTDLSSLIQAGQQFAQQIQQQNPELIEQLRNHIWSRSFSSSAEEHS [R292W] | with no effect
